# Source: US9050374B2, “Inhibitors against endosomal/lysosomal enzymes” (UNIVERSITY COURT OF THE UNIVERSITY OF DUNDEE, priority 2011, dated 2015)
# Entries after “also recorded” stand apart in the source; their conditions may differ. Where a SMILES comes first, the peptide text is derived from it. [ ]: non-standard residue; d: D form. The star is where a group is joined. Sta = CC(C)C[C@H](N)[C@@H](O)CC(=O)O; Isovaleryl = CC(C)CC(=O)*
# T1: AEP (Homo sapiens, UniProt Q99538)
# T1 sequence (Q99538 18-323): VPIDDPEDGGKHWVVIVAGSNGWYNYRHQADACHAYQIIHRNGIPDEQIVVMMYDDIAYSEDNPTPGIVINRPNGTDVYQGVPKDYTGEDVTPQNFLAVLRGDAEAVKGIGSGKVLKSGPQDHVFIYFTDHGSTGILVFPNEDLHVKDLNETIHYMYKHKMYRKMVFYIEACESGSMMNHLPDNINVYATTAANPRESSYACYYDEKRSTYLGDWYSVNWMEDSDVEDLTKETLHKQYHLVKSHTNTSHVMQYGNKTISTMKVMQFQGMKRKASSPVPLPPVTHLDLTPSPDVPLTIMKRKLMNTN
# B1: T102C: cystatin C mutant with threonine 102 replaced by cysteine, C-terminal 6His-tag (protein)
# chain: SSPGKPPRLVGGPMDASVEEEGVRRALDFAVGEYNKASNDMYHSRALQVVRARKQIVAGVNYFLDVELGRTTCTKCQPNLDNCPFHDQPHLKRKAFCSFQIYAVPWQGTMTLSKSTCQDAHHHHHH
# B2: cystatin C: naturally occurring 14 kDa protein that inhibits PLCPs and AEP (protein, listed as Homo sapiens)
# chain: MAGPLRAPLLLLAILAVALAVSPAAGSSPGKPPRLVGGPMDASVEEEGVRRALDFAVGEYNKASNDMYHSRALQVVRARKQIVAGVNYFLDVELGRTTCTKTQPNLDNCPFHDQPHLKRKAFCSFQIYAVPWQGTMTLSKSTCQDA
# modifications: Cystatin C
# Columns and labels:
# [1] = cited from earlier work
# [2] = test system: endo-lysosomal proteases of purified lysosomes from mouse macrophages; assay: In vitro digest of apo-HRP with purified macrophage lysosomes; assay type: biochemical; details: SDS-PAGE
# Protocol: Lysosomes isolated from bone-marrow derived macrophages using a Percoll density-gradient fractionation (400 ng/μL, 3.6 μL) were resuspended in assay buffer (50 mM Citrate, pH 4.5, 0.5% Triton X-100; 59 μL) Inhibitor (70 μM; 12 μL in PBS+5% DMSO) was added and the mixture incubated for 15 minutes. Protein substrate (1 mg/mL in PBS, 9 μL) was added to the mixture and the reaction was incubated at 37° C. At the indicated timepoints 20 μL of the reaction mixture was removed and boiled with LDS-sample buffer and analysed by SDS-PAGE.
# [3] = biological target: Cathepsin D and E; details: read-out: Ki for inhibition of Cathepsin D and E; cited from earlier work
# [4] = Solubility in aqueous media; assay type: physicochemical; details: applicant's own observation
# [5] = biological target: T2, mouse Cathepsin L (Mus musculus, UniProt P06797); assay: Inhibition studies of recombinant Cathepsin L; assay type: biochemical; details: compared among mutants R77C, L117C, T102C; 5 ng Cathepsin L/well
# T2 construct: purchased R&D systems
# T2 sequence (P06797 114-333 limits assumed): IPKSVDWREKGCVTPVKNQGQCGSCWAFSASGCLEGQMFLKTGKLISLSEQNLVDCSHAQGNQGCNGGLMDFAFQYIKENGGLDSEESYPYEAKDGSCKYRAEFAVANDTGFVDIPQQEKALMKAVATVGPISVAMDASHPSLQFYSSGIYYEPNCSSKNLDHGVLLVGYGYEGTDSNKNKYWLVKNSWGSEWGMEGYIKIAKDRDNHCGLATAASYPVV
# Protocol: All protease inhibition studies were carried out as described previously^7-9 on a FLUOstar Optima Fluorimeter (BMG) with 360 nm excitation and 460 nm emission wavelength filters as described previously.^1-2,9-10 Recombinant Cathepsin D and Cathepsin S were purchased from R&D Systems.
# The mixture was gently shaken at room temperature for 5 minutes prior to the addition of Z-Leu-Arg-AMC (40 μM in assay buffer, made from a 1 mM DMSO Stock solution). 7-amino-4-methylcoumarin release was measured by fluorescence spectroscopy over time. Initial rates were plotted against inhibitor concentration^11.
# [6] = biological target: T1, AEP; details: via a distinct binding site; read-out: Ki for inhibition of AEP; cited from earlier work
# [7] = test system: COS-7 cells, EGFr; assay: Effect on EGF receptor downregulation and EGF signalling (Western blot); assay type: cell-based
# Protocol: COS7 cells growing in 12-well tissue culture plates were preincubated for 1 hour with or without cystatin C (0.35 mg/ml) or CPI (0.32 mg/ml) and then stimulated with 100 ng/ml EGF for the times shown. The cells were scraped from the well in 50 μl lysis buffer containing 50 mM Tris, 150 mM NaCl, 1 mM EGTA, 1 mM EDTA, 1% NP40 plus protease inhibitors (Roche, Miniprotease tablet). […] The blot was then stripped and reprobed for phosphor-Erk (p42/44 MAP kinase; Cell signalling) and as as loading control, Rsk2 (Santa Cruz) with appropriate secondary antibodies. The signals were quantitated using ImageJ analysis software.
molecule,measurement,setting,value
CC(C)CC(=O)N[C@H](C(=O)N[C@H](C(=O)N[C@@H](CC(C)C)[C@@H](O)CC(=O)N[C@@H](C)C(=O)N[C@@H](CC(C)C)[C@@H](O)CC(=O)O)C(C)C)C(C)C [pepstatin A] (Isovaleryl-VV[Sta]A[Sta]-OH),"solubility in aqueous media, in words",[1],virtual insolubility in aqueous media
same,stabilization of apo-HRP against lysosomal degradation,"[2]; FIG. 9, listed as pepstatin",little or no stabilization
same,Ki,[3],0.1 nM
same,"water solubility, in words",[4],insolubility; also recorded: very insoluble
B1,inhibitory properties of cystatin C mutants,[5],most favourable inhibitory properties
B2,stabilization of apo-HRP against lysosomal degradation,"[2]; FIG. 9, listed as Cystatin C",appears to protect a fragment only
same,stabilization of apo-HRP against lysosomal degradation,"[2]; FIG. 9, listed as cystatin",little or no stabilization
same,Ki,[6],0.2 nM
same,EGFr level / downregulation after EGF challenge,"[7]; 1 hour preincubation, 100 ng/ml EGF up to 90 min, Western blot",suppressed EGFr downregulation but not to the same extent as CPI
same,activation of MAP kinases Erk1/2 (check for inhibitor toxicity),[7]; COS-7 cells stimulated with EGF,normally
